Data published in the supplement of paper PMC10567573.

B1: APBB1IP (parent)
chain: SQVSMWDQRWQDHQPLLPITDVP
B2: TRIM39 (parent)
chain: CKACITRWWEDLERDFPCPVCRKT

Variants of: B1
Assay: protein stability index of a GFP-peptide fusion (GPS, HEK-293T) (PSI 1-6); higher = more stable
Details: c terminus: native
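Further: lentivirally expressed fusions sorted by FACS into six bins by GFP to DsRed ratio, PSI derived from sequencing read proportions per bin multiplied by bin number.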

Protein stability index, by site and new letter:
V3: K 2.34 | F 1.86
M5: A 3.14
R9: F 3.11 | P 3.64
L17: H 3.2 | G 3.81
W6: H 2.51
Q2: W 1.72
P23: T 2.01 | K 2.03
P15: V 1.55
D21: N 1.7 | A 2.56
H13: D 3.17
Q14: W 2.23
Q11: R 3.7

Variants of: B2
Assay: as above
Details: c terminus: a fixed tail appended

Protein stability index of substitutions, site by site:
K23: E 4.33 | V 3.42 | G 3.38 | Q 4.58 | F 2.57 | C 3.13 | L 2.96 | T 3.31 | Y 2.29 | S 3.63 | P 3.41 | M 3.37 | I 3.23 | D 4.34 | R 3.25 | A 3.9 | N 3.95 | W 2.95 | H 3.27
C21: A 2.18 | S 1.68 | P 1.11 | R 1.94 | W 2.18 | V 1.52 | K 2.19 | D 2.57 | N 2.39 | G 1.4 | F 1.43 | Y 3.73 | L 1.62 | H 2.63 | E 1.32 | M 1.56 | T 1.56 | I 1.38 | Q 2.48
W8: N 5.12 | P 5.08 | R 4.62 | V 4.73 | M 4.62 | Y 4.22 | H 4.66 | S 4.92 | L 4.19 | Q 4.83 | I 4.26 | T 4.09 | G 4.8 | K 4.6
R22: M 3.72 | T 3.72 | W 2.53 | E 4.37 | D 3.75 | S 3.56 | V 3.04 | H 4.32 | N 4.22 | F 3.4 | A 4.36 | C 3.74 | Y 3.58 | P 3.15 | G 4.6 | K 3.47 | L 3.81 | Q 3.96 | I 3.62
W9: F 4.07 | Y 3.75 | K 4.86 | G 4.55 | D 4.55 | A 4.23 | E 4.24 | H 5.16 | V 4.31 | T 4.25 | L 3.87 | I 3.65 | S 4.56 | M 4.11 | N 4.52 | Q 4.69 | C 4.53 | P 4.3 | R 4.47
R14: H 4.23 | E 4.59 | C 4.09 | P 3.79 | M 4.27 | F 3.69 | A 4.19 | Q 3.78 | Y 3.48 | G 4.59 | D 3.99 | K 4.03 | N 3.83 | T 4.63 | V 3.76 | W 3.52 | L 3.4 | S 4.4 | I 3.26
V20: E 4.77 | I 4.22 | F 3.78 | P 2.36 | W 3.56 | M 3.37 | Q 4.09 | L 4.16 | H 3.88 | A 4.24 | K 4.19 | R 3.99 | T 4.4 | S 4.3 | Y 3.73 | C 3.44 | G 3.39 | N 4.37 | D 4.55
P17: M 4.09 | F 4.25 | T 3.97 | A 3.55 | V 4.35 | S 4.2 | L 3.85 | Y 3.9 | Q 4.2 | D 3.5 | E 4.41 | I 3.97 | W 3.49 | N 4.27 | R 4.27 | K 4.06 | C 3.98 | H 4 | G 3.46
D11: I 2.53 | Y 3.31 | P 3.93 | M 3.9 | N 4.06 | W 3.37 | A 3.71 | T 3.58 | G 2.85 | S 4.28 | V 3.79 | H 3.52 | C 3.38 | E 3.68 | K 3.5 | R 3.4 | F 3.5 | Q 3.48 | L 3.57
C18: K 1.38 | S 1.88 | R 2.02 | F 2.34 | N 1.24 | T 1.39 | P 2.25 | D 1.71 | Q 2.53 | L 2.41 | I 1.79 | G 1.77 | H 1.54 | Y 2.02 | W 1.11 | V 1.28 | M 1.42 | E 1.94
L12: I 3.71 | S 4.44 | T 4.45 | K 4.19 | Y 3.43 | R 3.86 | P 4.06 | E 3.29 | C 3.88 | H 2.89 | D 4.05 | Q 3.65 | W 3.87 | N 4.24 | M 4.14 | A 4 | F 3.88 | G 4.11 | V 3.63
E10: H 3.77 | F 3.51 | N 4.11 | Q 3.56 | K 3.5 | Y 3.24 | R 3.06 | S 3.78 | D 4.11 | V 3.16 | L 3.13 | P 3.72 | C 3.64 | A 4.08 | W 2.92 | I 3.65 | M 3.64 | G 3.94 | T 4.08
F16: I 3.78 | S 4.27 | A 4.32 | Q 4.59 | M 3.99 | W 3.6 | G 4.05 | L 2.96 | V 4.04 | Y 3.7 | R 4.2 | N 3.54 | C 2.32 | D 4.42 | H 4.1 | T 4.37 | E 4.66 | P 3.76 | K 4.48
T24: W 3.02 | G 4.24 | E 3.98 | F 3.03 | D 4.83 | K 3.83 | R 3.67 | M 3.76 | S 4.03 | A 4.07 | V 3.57 | Q 4.21 | N 3.61 | P 2.78 | H 3.58 | C 2.75 | Y 3.74 | L 3.78 | I 3.57
D15: E 3.54 | M 2.37 | L 2.26 | R 2.46 | H 2.72 | T 3.06 | Y 2.84 | V 3 | A 3.32 | I 2.43 | W 2.72 | K 2.98 | N 3.73 | P 3.87 | S 3.79 | Q 3.36 | G 3.31 | F 3.24 | C 2.09
E13: C 2.82 | I 3.08 | R 3.46 | V 2.98 | F 3.37 | K 2.98 | T 3.13 | Y 3.79 | N 3.61 | H 3.23 | S 3.63 | A 3.36 | D 3.7 | W 2.92 | L 3.15 | G 3.79 | M 2.95 | P 3.61 | Q 3.94
P19: C 2.26 | T 3.35 | K 2.69 | Q 3.12 | S 3.47 | Y 2.27 | G 2.86 | W 2.1 | I 2.3 | F 1.95 | M 2.88 | V 2.94 | A 3.15 | H 3.35 | L 2.65 | D 3.85 | N 3.29 | R 2.82 | E 3.55
